Measurements published in publication PMC5297747.

Legend:
[1] = target: bovine α-chymotrypsin (bovine)
[2] = target: bovine α-chymotrypsin (bovine); experiment: progress curve of protease inhibition; 40 °C; buffer B (100 mM HEPES-NaOH pH 7.5, 200 mM NaCl, 10 mM CaCl2, 0.01% triton X-100, 0.1% glycerol); 1 mM Suc-AAPF-pNA or MeO-SucAAPV-pNA as substrate; various concentrations of Pnserpin; absorption at 410 nm; kass = kunc × (1 + [S]/KM)

stoichiometry of inhibition (SI), incubation at 20 °C; residual protease activity [1]: 9.49
stoichiometry of inhibition (SI), incubation at 30 °C; residual protease activity [1]: 5.8
stoichiometry of inhibition (SI), incubation at 40 °C; residual protease activity [1]: 4.76
stoichiometry of inhibition (SI), incubation at 50 °C; residual protease activity [1]: 2.21
kon [2]: 24600 M⁻¹ s⁻¹
Substance: Pnserpin (from UniProt B1YBN4 1-393) (natural protein)
